Assay results reported in patent US20260209346A1 (LTZ THERAPEUTICS, published 2026).
Numbering of substitutions follows the chain as printed. Values belong to the binder of their own block, whether it stands above or below them.

Experiments:
[1] = biological target: T1, CD79b endogenously expressed on the cell surface (malignant B cell lines, normal B cells in PBMC, CLL … (human, UniProt P40259 29-229)); test: flow cytometry on a cell line expressing endogenous CD79b (not named on the sheet or in the text); MFI (PE)
T1 construct: whole, on cells; On cells CD79b stands in the B-cell receptor complex with CD79a and surface Ig; also called cell surface CD79b; endogenous CD79b
T1 sequence (looked up): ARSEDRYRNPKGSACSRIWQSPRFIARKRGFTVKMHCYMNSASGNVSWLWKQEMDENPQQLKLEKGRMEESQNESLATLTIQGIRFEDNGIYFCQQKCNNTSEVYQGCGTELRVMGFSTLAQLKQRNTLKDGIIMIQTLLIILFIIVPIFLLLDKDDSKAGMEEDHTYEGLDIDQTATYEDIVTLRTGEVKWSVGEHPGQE

[2] = biological target: T2, human CD79b recombinant protein (human, UniProt P40259 29-159); test: ELISA on recombinant human CD79b ECD; A 450nm
T2 construct: also called human CD79b ECD antigen; recombinant human CD79b ECD
T2 sequence: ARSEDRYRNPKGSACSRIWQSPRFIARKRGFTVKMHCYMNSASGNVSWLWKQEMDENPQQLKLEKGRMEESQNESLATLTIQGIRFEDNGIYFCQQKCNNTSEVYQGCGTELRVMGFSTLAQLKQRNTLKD

[3] = biological target: T1, CD79b endogenously expressed on the …; test: flow cytometry on PBMC of CLL Donor 0255 (B lymphocytes); PE goat anti-human IgG Fc; MFI PE
Procedure: To determine the binding affinities of the anti-CD79b antibodies to cell surface CD79b on Chronic Lymphocytic Leukemia (CLL) patient's B lymphocytes, a cell-based binding assay was conducted. […] CLL patient PBMCs were purchased from the company Bioscience. […] Specifically, 2.5×10⁴ PBMC cells in 50 μl FACS buffer (1×PBS+2% BSA+2 mM EDTA) were seeded in each well of a V bottom 96-well plate. […] The mixture was incubated on ice for 30 minutes, and then washed twice with FACS buffer. The cells were re-suspended in 100 μl FACS buffer containing PE conjugated goat anti-human IgG Fc (1:1000) and anti-human CD19 (BV421), and incubated for 30 minutes on ice in darkness. After washing twice with FACS buffer, the cells were re-suspended in 100 μl of FACS buffer and analyzed with a Cytek cytometer.

[4] = biological target: T1, CD79b endogenously expressed on the …; test: flow cytometry on BJAB cells; anti-human IgG1-PE; MFI (PE); table under the graph
Procedure: (§1) The binding affinities of anti-CD79b antibodies to malignant B cell lines were tested. […] The cells were then incubated with 100 μl anti-human IgG1-PE (Invitrogen, cat: 12-4998-82), 1:1000 dilution, for 30 min on ice, washed with 200 ul PBS for three times before flow cytometry analysis.

[5] = biological target: T1, CD79b endogenously expressed on the …; test: flow cytometry on Ramos cells; anti-human IgG1-PE; MFI (PE); table under the graph
Procedure: as §1

[6] = biological target: T2, human CD79b recombinant protein; test: BLI, antibody captured on anti-human IgG Fc probes, human CD79b in solution, 1:1 model
Procedure: (§2) Binding affinities of anti-CD79b antibodies to human CD79b recombinant proteins were tested by BLI. 10 ug/ml of anti-CD79b antibodies were captured by anti-human IgG Fc probes (Gator Bio Catalog #160024). […] Absolute kD was determined by applying a 1:1 binding model (Global Rmax unlinked).

[7] = biological target: T2, human CD79b recombinant protein; test: ELISA, coated human CD79b recombinant protein
Procedure: (§3) Binding affinities of anti-CD79b antibodies to human and cynomolgus CD79b recombinant proteins were tested by ELISA. 1 ug/ml (in PBS buffer) of human or cynomolgus CD79b recombinant proteins were coated on an ELISA plate overnight. ELISA plates were washed and blocked with blocking buffer (PBS+1% BSA) followed by incubation with serially diluted anti-CD79b primary antibodies. Anti-CD79b antibody binding was quantified using an anti-human IgG HRP secondary antibody (Biolegend Catalog #410902) and HRP substrate.

[8] = biological target: T1, CD79b endogenously expressed on the …; test: flow cytometry on SU-DHL-4 cells; anti-human IgG1-PE; MFI (PE); table under the graph
Procedure: as §1

[9] = biological target: T3, cynomolgus CD79b recombinant protein (cynomolgus); test: ELISA, coated cynomolgus CD79b recombinant protein
T3 chain: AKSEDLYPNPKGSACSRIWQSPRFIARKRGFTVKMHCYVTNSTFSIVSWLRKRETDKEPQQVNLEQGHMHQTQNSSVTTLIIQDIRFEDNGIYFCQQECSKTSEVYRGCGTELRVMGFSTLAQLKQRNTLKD
Procedure: as §3

[10] = biological target: T1, CD79b endogenously expressed on the …; test: flow cytometry on Nalm-6 cells; anti-human IgG1-PE; MFI (PE); table under the graph
Procedure: as §1

[11] = biological target: T2, human CD79b recombinant protein; test: BLI; antibody at 10 ug/ml captured on anti-human IgG Fc probes, hCD79b in solution; same value printed in the rows for 18.3 and 9.14 nM hCD79b
Procedure: as §2

[12] = biological target: T1, CD79b endogenously expressed on the …; test: flow cytometry on Daudi cells; anti-human IgG1-PE; MFI (PE); table under the graph
Procedure: as §1

[13] = biological target: T1, CD79b endogenously expressed on the …; test: flow cytometry on PBMC of Donor 889, B cells marked with CD19-BV421; anti-human IgG1-PE; MFI (PE); table under the graph
Procedure: (§4) The binding affinities of anti-CD79b antibodies to endogenous B cells were tested. […] The cells were then incubated with […] mixture of anti-human IgG1-PE (Invitrogen, Cat #: 12-4998-82), 1:1000 dilution; CD19-BV421 (Biolegend, Cat #:302230, 1:400 dilution) for 30 min on ice, and washed with 200 ul PBS for three times before flow cytometry analysis.

[14] = biological target: T1, CD79b endogenously expressed on the …; test: flow cytometry on PBMC of Donor 356, B cells marked with CD19-BV421; anti-human IgG1-PE; MFI (PE); table under the graph
Procedure: as §4

[15] = biological target: T1, CD79b endogenously expressed on the …; test: flow cytometry on PBMC of Donor 2235, B cells marked with CD19-BV421; anti-human IgG1-PE; MFI (PE); table under the graph
Procedure: as §4

[16] = biological target: T1, CD79b endogenously expressed on the …; test: flow cytometry on PBMC of Donor 2890, B cells marked with CD19-BV421; anti-human IgG1-PE; MFI (PE); table under the graph
Procedure: as §4

B2: ch57B9 (antibody, human IgG1, kappa, V domains shown)
VH: QSVRETGGGLVQPGGSLTLSCEASEFTINIDYWISWVRQAPGKGLEWIGIIDPGDGTTYFAIWVSGRFTITRNTNLNTVDLKMTSLTEADTATYFCAREVSASAYQYDLWGPGTLVTVSS
VL: ALVMTQTPSSVSADVGGTVSINCQASEDIESYLAWYQQKPGQPPKLLIYFTSNLASGVPSRFKGSGSGTEYTLTISGVQPDDAATYYCQQGYRNSDVHNPFGGGTEVVVKR
notes: Rabbit/human chimeric IgG1 kappa; also called chimeric 57B9
EC50 (read off the curve) [3]: ~0.9 nM
EC50 (read off the curve) [1]: ~0.3 nM
EC50 [4]: 0.91 nM
EC50 [5]: 1.3 nM
Kd [6]: 0.239 nM
IC50 [7]: 0.42 nM
EC50 [8]: 0.89 nM
IC50 [9]: 186 nM
EC50 [10]: 1.73 nM
koff [11]: 8.8e-05 s⁻¹
kon [11]: 368000 M⁻¹ s⁻¹
EC50 [12]: 1.22 nM
EC50 (read off the curve) [2]: ~0.1 nM

B3: hu44G2 (antibody, V domains shown)
VH: EQQLVETGGGLIQPGGSLRLSCAASGFTINIDYWISWVRQAPGKGLEWIGIIDPGDGTTYFAIWVSGRFTISFDNSKNTVYLQMNSLRAEDTAVYFCVREFSASAYQYDLWGPGTLVTVSS
VL: ELVMTQSPATLSVSPGERATLSCRASEDIENYLAWYQQKPGQPPRLLIYRASTLSSGVPARFSGSGSGTEFTLTISSLQSEDFAVYYCQQGYRNSNVDNPFGGGTKVEIK
notes: Humanized antibody; also called humanized 44G2
EC50 (read off the curve) [1]: ~0.2 nM
EC50 (read off the curve) [2]: ~0.2 nM

B5: hu48H10 (antibody, V domains shown)
VH: B3 VH with F73T, V98A
VL: B3 VL with R24Q, N31S, A34T, I48M, G64A, S95K, N96D
notes: Humanized antibody; also called humanized 48H10
EC50 (read off the curve) [1]: ~0.5 nM
EC50 (read off the curve) [2]: ~0.1 nM

B7: ch22D10 (antibody, human IgG1, kappa, V domains shown)
VH: QSVEESGGRLVTPGTPLTLTCTASGFTINDYHMNWVRQAPGKGLEWIGIISSNGDTYYASWAKGRFTISRTSTTVDLKMTSLTTEDTATYFCARDDRDRSYAFDPWGPGTLVTVSS
VL: ALVMTQTPSSVSAAVGGTVTINCRASEDIERYLAWYQQKPGQRPKLLIYGASTLASGVPSRFKGSGSGTEYTLTISGVQPDDAATYYCHQGDSSRNVVNVFGGGTEVVVKR
notes: Rabbit/human chimeric IgG1 kappa; also called chimeric 22D10
EC50 [4]: 0.34 nM
EC50 [5]: 0.36 nM
Kd [6]: 0.313 nM
IC50 [7]: 0.22 nM
EC50 [8]: 0.4 nM
EC50 [10]: 0.43 nM
koff [11]: 0.000106 s⁻¹
kon [11]: 338000 M⁻¹ s⁻¹
EC50 [12]: 0.24 nM

Second part, the binder after the results:

EC50 (read off the curve) [1]: ~0.5 nM
EC50 (read off the curve) [2]: ~0.1 nM
B1: hu23D8 (antibody, V domains shown)
VH: EQQLLESGGGLVQPGGSLRLSCAVSGLSLSSNAINWVRQAPGKGLEWIGMIYSGGRIEYASWAKGRFTISKDSSKNTVYLQMNSLRAEDTAVYFCAKGMSPSAHSSDIWGPGTLVTVSS
VL: EGVMTQSPATLSVSPGERATLSCQASQSISDNLSWYQQKPGQPPRLLIYDASDLASGVPARFSGSGSGTEFTLTISSLQSEDFAVYYCQQDWISSNVDNTFGGGTKVEIK
notes: Humanized antibody; also called humanized 23D8

EC50 (read off the curve) [1]: ~0.2 nM
EC50 (read off the curve) [2]: ~0.08 nM
B4: hu57B9 (antibody, V domains shown)
VH: B3 VH with G26E, F73R, N75T, V98A, F101V
VL: B3 VL with R24Q, N31S, R50F, A51T, T53N, S55A, F71Y, N96D, D98H
notes: Humanized antibody; also called humanized 57B9

EC50 (read off the curve) [3]: ~0.9 nM
EC50 [13]: 0.154 nM
EC50 (read off the curve) [1]: ~0.4 nM
EC50 [4]: 0.98 nM
EC50 [14]: 0.446 nM
EC50 [5]: 1.32 nM
Kd [6]: 0.0314 nM
IC50 [7]: 0.6 nM
EC50 [15]: 0.272 nM
EC50 [8]: 0.98 nM
IC50 [9]: 65.3 nM
EC50 [16]: 1.17 nM
EC50 [10]: 2.69 nM
koff [11]: 1.09e-05 s⁻¹
kon [11]: 346000 M⁻¹ s⁻¹
EC50 [12]: 1.38 nM
EC50 (read off the curve) [2]: ~0.3 nM
B6: ch48H10 (antibody, human IgG1, kappa, V domains shown)
VH: QSVKETGGGLVQPGGSLTLSCKASGFTINIDYWISWVRQAPGKGLEWIGIIDPGDGTTYFAIWVSGRFTISTDNAQNTVDLQMNSLTAADTATYFCAREFSASAYQYDLWGPGTLVTVSS
VL: ALVMTQTPSSVSAAVGGTVSINCQASEDIESYLTWYQQKPGQPPKLLMYRASTLSSGVSSRFSASGSGTEFTLTISGVQPDDAATYYCQQGYRNKDVDNPFGGGTEVVVKR
notes: Rabbit/human chimeric IgG1 kappa; also called chimeric 48H10
